Among the data in patent publication US20230192803A1 (published 2023) are EC50 values, retold here.

Broadly, the EC50 is the midpoint of the concentration-response curve.

For assay [1], the target named is Ad293 STEAP3-2. Description: flow cytometry cell binding; Ad293 STEAP3-2 chimera cells; affinity calculated from EC50.
Assay [2] addresses Ad293 Murine STEAP3-2. Description: flow cytometry cell binding; Ad293 murine STEAP3-2 chimera cells; affinity calculated from EC50.

B1: 40A3 scFv-Fc (Fc fusion)
scFv: EIVMTQSPATLSVSPGERATLSCRASQSVNSNLAWYQQKPGQAPRLLIYGASTRATGIPARFSGSGSGTEFTLTISSLQSEDFAVYYCQQYNNWPFTFGPGTKVDIKGGGGSGGGGSGGGGSGGGGSQVQLQQSGPGLVKPSQTLSLTCAISGDSVSRNSAVWNWIRQSPSRGLEWLGRTYYRSKWYNDYAVSVKSRITINPDTSKNQFSLQVNSVTPEDTAVYYCARGLLQNNFYYYMDVWGKGTTVTVSS
Consider B1, for which the EC50 in assay [1] was 20.2 nM; in assay [2] it was 28.2 nM.
